Drawing on patent US20250073334A1, this text covers units of H5 conjugated per nanoparticle (units of H5 per nanoparticle) for one substance.

For this assay, the target named is CpG-ST-E2 nanoparticle (ST-E2 with CpG 1826 conjugated in the internal cavity) (Geobacillus stearothermophilus). As to the kind of experiment: SpyTag-SpyCatcher reaction, SDS-PAGE.

In turn, SpyCatcher-H5 hemagglutinin construct gave a units of H5 conjugated per nanoparticle (units of H5 per nanoparticle) of 17.1.
